We go through one substance from US20090208538A1.

In assay [1] the target is HLA-A*0201 (human). In words: iTopia binding.
The target of assay [2] is HLA-A*0201 (human). In words: iTopia net score.
Assay [3] deals with HLA-A*0201 (human). In words: iTopia affinity.

Some results are limits rather than exact numbers.

In the case of cdr2 246-254 RALELEAV (peptide), in the assay with HLA-A*0201 (human) [1], the binding vs positive control was more than 30%. For the same substance, the iScore with HLA-A*0201 (human) [2] was 0.352. Moreover, the ED50 with HLA-A*0201 (human) [3] is 1 µM.
